Experimental data from article PMC6836825, “K^+ Channel-SEC11 Binding Exchange Regulates SNARE Assembly for Secretory Traffic^1” (Plant Physiology, 2019).

T1: Flag3-SNAP33-6His (Arabidopsis thaliana, UniProt Q9S7P9 1-300)
T1 construct: Qbc-SNARE SNAP33, Arabidopsis thaliana, At5G61210; not shown: Flag3, N-terminal, kept; 6His, C-terminal, kept
T1 sequence (looked up): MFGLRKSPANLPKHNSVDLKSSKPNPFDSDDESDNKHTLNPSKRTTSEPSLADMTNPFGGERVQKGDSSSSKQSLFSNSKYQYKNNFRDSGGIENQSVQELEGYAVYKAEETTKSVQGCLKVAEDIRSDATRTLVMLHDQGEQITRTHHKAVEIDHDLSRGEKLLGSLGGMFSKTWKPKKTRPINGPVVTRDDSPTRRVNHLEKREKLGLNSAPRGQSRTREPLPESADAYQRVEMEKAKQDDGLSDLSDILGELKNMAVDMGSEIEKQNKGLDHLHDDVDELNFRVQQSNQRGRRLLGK

B1: KC1^67–91-Flag3-StrepII (domain or fragment, Arabidopsis thaliana, UniProt P92960 67-91, looked up)
chain: IEDDNPSSKPFIVLHFDRRYRLWEL
notes: KC1 K+ channel subunit, Arabidopsis thaliana, At4g32650, N-terminal cytosolic domain residues 67-91; also called KC1^67–91 peptide; KC1^67–91-3flag-StrepII; not shown: Flag3, C-terminal, kept; StrepII, C-terminal, kept
B2: KAT1^1–63-Flag6-StrepII (domain or fragment, Arabidopsis thaliana, UniProt Q39128 1-63, looked up)
chain: MSISWTRNFFERFCVEEYNIDTIKQSSFLSADLLPSLGARINQSTKLRKHIISPFNPRYRAWE
notes: KAT1 K+ channel, Arabidopsis thaliana, At5g46240, N-terminal cytosolic domain residues 1-63; also called KAT1^1–63 peptide; KAT1^1–63-6flag-StrepII; not shown: Flag6, C-terminal, kept; StrepII, C-terminal, kept

Target: T1, Flag3-SNAP33-6His
Experiment: pull-down; KC1^67–91-Flag3-StrepII or KAT1^1–63-Flag6-StrepII immobilised on Strep-Tactin resin; one prey at a time in 3-fold excess; overnight at 4°C; SDS-PAGE, Coomassie
Conditions: both partners purified

Row | Binder | binding result
1 | B1 | binds
2 | B2 | binds
